B1: CDK1 (endogenous, NIH3T3) (enzyme)
chain: not shown
notes: CDK1, endogenous protein of mouse NIH3T3 cells, detected by Western blot; source: endogenous, NIH3T3 cell extract
B2: p21 (endogenous, NIH3T3) (natural protein, mouse (endogenous in NIH3T3), UniProt P39689 1-159, looked up)
chain: MSNPGDVRPVPHRSKVCRCLFGPVDSEQLRRDCDALMAGCLQEARERWNFDFVTETPLEGNFVWERVRSLGLPKVYLSPGSRSRDDLGGDKRPSTSSALLQGPAPEDHVALSLSCTLVSERPEDSPGGPGTSQGRKRRQTSLTDFYHSKRRLVFCKRKP
notes: p21, endogenous protein of mouse NIH3T3 cells, detected by Western blot; source: endogenous, NIH3T3 cell extract
B3: p107 (endogenous, HEK 293) (natural protein, human (endogenous in HEK 293), UniProt P28749 1-1068, looked up)
chain: MFEDKPHAEGAAVVAAAGEALQALCQELNLDEGSAAEALDDFTAIRGNYSLEGEVTHWLACSLYVACRKSIIPTVGKGIMEGNCVSLTRILRSAKLSLIQFFSKMKKWMDMSNLPQEFRERIERLERNFEVSTVIFKKYEPIFLDIFQNPYEEPPKLPRSRKQRRIPCSVKDLFNFCWTLFVYTKGNFRMIGDDLVNSYHLLLCCLDLIFANAIMCPNRQDLLNPSFKGLPSDFHTADFTASEEPPCIIAVLCELHDGLLVEAKGIKEHYFKPYISKLFDRKILKGECLLDLSSFTDNSKAVNKEYEEYVLTVGDFDERIFLGADAEEEIGTPRKFTRDTPLGKLTAQANVEYNLQQHFEKKRSFAPSTPLTGRRYLREKEAVITPVASATQSVSRLQSIVAGLKNAPSDQLINIFESCVRNPVENIMKILKGIGETFCQHYTQSTDEQPGSHIDFAVNRLKLAEILYYKILETVMVQETRRLHGMDMSVLLEQDIFHRSLMACCLEIVLFAYSSPRTFPWIIEVLNLQPFYFYKVIEVVIRSEEGLSRDMVKHLNSIEEQILESLAWSHDSALWEALQVSANKVPTCEEVIFPNNFETGNGGNVQGHLPLMPMSPLMHPRVKEVRTDSGSLRRDMQPLSPISVHERYSSPTAGSAKRRLFGEDPPKEMLMDKIITEGTKLKIAPSSSITAENVSILPGQTLLTMATAPVTGTTGHKVTIPLHGVANDAGEITLIPLSMNTNQESKVKSPVSLTAHSLIGASPKQTNLTKAQEVHSTGINRPKRTGSLALFYRKVYHLASVRLRDLCLKLDVSNELRRKIWTCFEFTLVHCPDLMKDRHLDQLLLCAFYIMAKVTKEERTFQEIMKSYRNQPQANSHVYRSVLLKSIPREVVAYNKNINDDFEMIDCDLEDATKTPDCSSGPVKEERGDLIKFYNTIYVGRVKSFALKYDLANQDHMMDAPPLSPFPHIKQQPGSPRRISQQHSIYISPHKNGSGLTPRSALLYKFNGSPSKSLKDINNMIRQGEQRTKKRVIAIDSDAESPAKRVCQENDDVLLKRLQDVVSERANH
notes: p107, endogenous protein of human HEK 293 cells, detected by Western blot; source: endogenous, HEK 293 cell extract

What was measured:
Conditions in all cases: partners not purified
[1] = molecular target: T1, Cyclin A2 M200A, C-terminally fused to 3 Flag tags (mouse, UniProt P51943 1-422, M200A); assay: co-IP; anti-Flag M2 affinity gel on extracts of NIH3T3 cells transfected with 3xFlag Cyclin A2 alleles; endogenous partners detected by Western blot; densitometry (ImageQuantTL) normalised to immunoprecipitated Cyclin A2, percent of WT; repeated 5 times
T1 construct: Cyclin A2, mouse; cDNA obtained from NIH3T3 cells by RT-PCR; source: NIH3T3 or HEK 293 cells, transfected, in cell extracts; not shown: 3xFlag, C-terminal, kept

[2] = molecular target: T2, Cyclin A2 Triple (M200A, L204A, W207A), C-terminally fused to 3 Flag tags (mouse, UniProt P51943 1-422, M200A | L204A | W207A); assay: as above
T2 construct: Cyclin A2, mouse; cDNA obtained from NIH3T3 cells by RT-PCR; also called Triple mutant; source: NIH3T3 or HEK 293 cells, transfected, in cell extracts; not shown: 3xFlag, C-terminal, kept

[3] = molecular target: T3, Cyclin A2 D171A, C-terminally fused to 3 Flag tags (mouse, UniProt P51943 1-422, D171A); assay: as above
T3 construct: Cyclin A2, mouse; cDNA obtained from NIH3T3 cells by RT-PCR; source: NIH3T3 or HEK 293 cells, transfected, in cell extracts; not shown: 3xFlag, C-terminal, kept

[4] = molecular target: T4, Cyclin A2 E210Q, C-terminally fused to 3 Flag tags (mouse, UniProt P51943 1-422, E210Q); assay: as above
T4 construct: Cyclin A2, mouse; cDNA obtained from NIH3T3 cells by RT-PCR; source: NIH3T3 cells, transfected, in cell extracts; not shown: 3xFlag, C-terminal, kept

[5] = molecular target: T5, Cyclin A2 WT, C-terminally fused to 3 Flag tags (mouse, UniProt P51943 1-422); assay: as above
T5 construct: Cyclin A2, mouse; cDNA obtained from NIH3T3 cells by RT-PCR; Same construct transfected into mouse NIH3T3 (assay a1) and human HEK 293 (assay a2); also called WT Cyclin A2 allele; Flag tagged WT Cyclin A2; source: NIH3T3 or HEK 293 cells, transfected, in cell extracts; not shown: 3xFlag, C-terminal, kept

[6] = molecular target: T6, Cyclin A2 E285A, C-terminally fused to 3 Flag tags (mouse, UniProt P51943 1-422, E285A); assay: as above
T6 construct: Cyclin A2, mouse; cDNA obtained from NIH3T3 cells by RT-PCR; source: NIH3T3 cells, transfected, in cell extracts; not shown: 3xFlag, C-terminal, kept

[7] = molecular target: T7, Cyclin A2 L204A, C-terminally fused to 3 Flag tags (mouse, UniProt P51943 1-422, L204A); assay: as above
T7 construct: Cyclin A2, mouse; cDNA obtained from NIH3T3 cells by RT-PCR; source: NIH3T3 or HEK 293 cells, transfected, in cell extracts; not shown: 3xFlag, C-terminal, kept

[8] = molecular target: T8, Cyclin A2 L282R, C-terminally fused to 3 Flag tags (mouse, UniProt P51943 1-422, L282R); assay: as above
T8 construct: Cyclin A2, mouse; cDNA obtained from NIH3T3 cells by RT-PCR; source: NIH3T3 cells, transfected, in cell extracts; not shown: 3xFlag, C-terminal, kept

[9] = molecular target: T9, Cyclin A2 Double (W207L, E210Q), C-terminally fused to 3 Flag tags (mouse, UniProt P51943 1-422, W207L | E210Q); assay: as above
T9 construct: Cyclin A2, mouse; cDNA obtained from NIH3T3 cells by RT-PCR; also called Double mutant; source: NIH3T3 cells, transfected, in cell extracts; not shown: 3xFlag, C-terminal, kept

[10] = molecular target: T10, Cyclin A2 W207A, C-terminally fused to 3 Flag tags (mouse, UniProt P51943 1-422, W207A); assay: as above
T10 construct: Cyclin A2, mouse; cDNA obtained from NIH3T3 cells by RT-PCR; source: NIH3T3 or HEK 293 cells, transfected, in cell extracts; not shown: 3xFlag, C-terminal, kept

[11] = molecular target: T11, Cyclin A2 K256A, C-terminally fused to 3 Flag tags (mouse, UniProt P51943 1-422, K256A); assay: as above
T11 construct: Cyclin A2, mouse; cDNA obtained from NIH3T3 cells by RT-PCR; source: NIH3T3 cells, transfected, in cell extracts; not shown: 3xFlag, C-terminal, kept

[12] = molecular target: T12, Cyclin A2 E180A, C-terminally fused to 3 Flag tags (mouse, UniProt P51943 1-422, E180A); assay: as above
T12 construct: Cyclin A2, mouse; cDNA obtained from NIH3T3 cells by RT-PCR; source: NIH3T3 cells, transfected, in cell extracts; not shown: 3xFlag, C-terminal, kept

[13] = molecular target: T1, Cyclin A2 M200A, C-terminally fused to …; assay: co-IP; anti-Flag M2 affinity gel on extracts of human HEK 293 cells transfected with mouse 3xFlag Cyclin A2 alleles; endogenous partners detected by Western blot; densitometry (ImageQuantTL) normalised to immunoprecipitated Cyclin A2, percent of WT; repeated 3 times
[14] = molecular target: T3, Cyclin A2 D171A, C-terminally fused to …; assay: as above
[15] = molecular target: T5, Cyclin A2 WT, C-terminally fused to 3 …; assay: as above
[16] = molecular target: T7, Cyclin A2 L204A, C-terminally fused to …; assay: as above

T5 sequence (P51943 whole entry, the tested form may be a part): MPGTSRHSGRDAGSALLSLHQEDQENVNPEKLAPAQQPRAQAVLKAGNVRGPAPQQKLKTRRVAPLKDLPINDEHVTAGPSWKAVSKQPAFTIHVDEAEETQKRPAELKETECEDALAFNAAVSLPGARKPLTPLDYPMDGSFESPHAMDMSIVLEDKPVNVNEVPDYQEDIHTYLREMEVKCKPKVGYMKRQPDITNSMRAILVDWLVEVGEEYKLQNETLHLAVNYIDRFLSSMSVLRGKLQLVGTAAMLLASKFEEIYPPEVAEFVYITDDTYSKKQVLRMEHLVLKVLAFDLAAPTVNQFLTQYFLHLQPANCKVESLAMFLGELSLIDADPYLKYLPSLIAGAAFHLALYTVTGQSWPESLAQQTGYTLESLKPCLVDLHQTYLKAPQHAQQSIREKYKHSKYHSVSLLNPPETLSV
T3 sequence (P51943 whole entry D171A, the tested form may be a part): as the sequence (P51943 whole entry, the tested form may be a part) above, with D171A counted along it
T7 sequence (P51943 whole entry L204A, the tested form may be a part): as the sequence (P51943 whole entry, the tested form may be a part) above, with L204A counted along it
T1 sequence (P51943 whole entry M200A, the tested form may be a part): as the sequence (P51943 whole entry, the tested form may be a part) above, with M200A counted along it
T8 sequence (P51943 whole entry L282R, the tested form may be a part): as the sequence (P51943 whole entry, the tested form may be a part) above, with L282R counted along it
T11 sequence (P51943 whole entry K256A, the tested form may be a part): as the sequence (P51943 whole entry, the tested form may be a part) above, with K256A counted along it
T10 sequence (P51943 whole entry W207A, the tested form may be a part): as the sequence (P51943 whole entry, the tested form may be a part) above, with W207A counted along it
T4 sequence (P51943 whole entry E210Q, the tested form may be a part): as the sequence (P51943 whole entry, the tested form may be a part) above, with E210Q counted along it
T6 sequence (P51943 whole entry E285A, the tested form may be a part): as the sequence (P51943 whole entry, the tested form may be a part) above, with E285A counted along it
T9 sequence (P51943 whole entry W207L/E210Q, the tested form may be a part): as the sequence (P51943 whole entry, the tested form may be a part) above, with W207L, E210Q counted along it
T2 sequence (P51943 whole entry M200A/L204A/W207A, the tested form may be a part): as the sequence (P51943 whole entry, the tested form may be a part) above, with M200A, L204A, W207A counted along it
T12 sequence (P51943 whole entry E180A, the tested form may be a part): as the sequence (P51943 whole entry, the tested form may be a part) above, with E180A counted along it

| percent co-precipitated relative to WT [1] | percent co-precipitated relative to WT [2] | percent co-precipitated relative to WT [3] | percent co-precipitated relative to WT [4] | percent co-precipitated relative to WT [5] | percent co-precipitated relative to WT [6] | percent co-precipitated relative to WT [7] | percent co-precipitated relative to WT [8] | percent co-precipitated relative to WT [9] | percent co-precipitated relative to WT [10] | percent co-precipitated relative to WT [11] | percent co-precipitated relative to WT [12] | percent co-precipitated relative to WT [13] | percent co-precipitated relative to WT [14] | percent co-precipitated relative to WT [15] | percent co-precipitated relative to WT [16] | Binder |
| --- | --- | --- | --- | --- | --- | --- | --- | --- | --- | --- | --- | --- | --- | --- | --- | --- |
| 72.8% | 0.4% | 100% | 45.3% | 100% | 4.7% | 57.2% | 19.8% | 9.2% | 15.3% | 3.8% | – | – | – | – | – | B1 |
| 100% | – | 100% | 60.2% | 100% | 78.2% | 100% | 65.7% | 8.2% | 79.2% | 41.9% | 11.7% | – | – | – | – | B2 |
| – | – | – | – | – | – | – | – | – | – | – | – | 57.4% | 95% | 100% | 5.3% | B3 |
